According to patent US20220242957A1 (MARENGO THERAPEUTICS, published 2022):

Key:
[1] = biological target: T1, human CSF1R-Fc ECD (human, UniProt P07333 20-517); test: ELISA, plate coated with 2 µg/mL human CSF1R, monovalent antibody titrated, anti-human Fc HRP
T1 construct: extracellular domain; not shown: Fc part of the coated reagent, not described
Method: Microplates were separately coated with 2 μg/mL of human or cyno CSF1R in 100 μL and blocked with 2% BSA. Serial dilutions of unlabeled monovalent human antibodies (11 points, 3-fold dilutions, 400 nM to […]) were transferred to the coated and blocked plates at 75 μL/well and incubated for 1 hr at room temperature. Plates were washed three times and incubated for 30 mins with anti-human Fc horseradish peroxidase conjugate followed by addition of TMB, a substrate of HRP. The plates were developed for 5 mins, stopped with 1M HCL and read at a wavelength of 450 nm.

[2] = biological target: T2, human CSF1R (human, UniProt P07333 20-972); test: flow cytometry on HEK-293T cells stably transduced with human CSF1R; anti-human Fc APC; percent APC positive
T2 construct: whole, on cells; also called hCSF1R
T2 sequence (P07333 20-972): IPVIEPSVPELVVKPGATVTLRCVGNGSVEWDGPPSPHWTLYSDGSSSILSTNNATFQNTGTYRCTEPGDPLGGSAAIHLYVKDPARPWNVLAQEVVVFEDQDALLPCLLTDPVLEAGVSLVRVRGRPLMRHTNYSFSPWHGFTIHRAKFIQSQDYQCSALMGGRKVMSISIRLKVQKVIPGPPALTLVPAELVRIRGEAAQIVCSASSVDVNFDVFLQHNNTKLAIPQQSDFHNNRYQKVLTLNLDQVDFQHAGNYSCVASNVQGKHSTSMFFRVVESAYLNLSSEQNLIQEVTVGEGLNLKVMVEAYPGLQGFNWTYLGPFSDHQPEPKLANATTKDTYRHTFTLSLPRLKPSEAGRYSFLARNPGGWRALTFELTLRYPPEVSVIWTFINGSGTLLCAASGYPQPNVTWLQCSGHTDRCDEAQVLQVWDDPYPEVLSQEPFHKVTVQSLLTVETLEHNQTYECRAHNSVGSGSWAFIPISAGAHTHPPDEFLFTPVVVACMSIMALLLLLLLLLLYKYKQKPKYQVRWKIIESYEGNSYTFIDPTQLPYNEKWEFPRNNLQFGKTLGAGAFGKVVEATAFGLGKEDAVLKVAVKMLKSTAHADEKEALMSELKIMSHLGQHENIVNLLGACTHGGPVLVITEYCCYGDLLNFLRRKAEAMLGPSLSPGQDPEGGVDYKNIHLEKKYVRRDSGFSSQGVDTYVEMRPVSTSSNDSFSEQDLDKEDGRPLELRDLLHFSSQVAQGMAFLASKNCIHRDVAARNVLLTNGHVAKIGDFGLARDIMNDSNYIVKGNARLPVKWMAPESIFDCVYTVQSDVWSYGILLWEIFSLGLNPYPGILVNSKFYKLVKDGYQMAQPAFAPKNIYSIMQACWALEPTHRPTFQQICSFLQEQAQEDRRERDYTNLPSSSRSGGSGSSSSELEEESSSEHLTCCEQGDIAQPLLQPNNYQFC
Method: HEK-293T cells were lentivirally transduced with human CSF1R and stable cell lines were generated. Nearly all transduced cells expressed high levels of CSF1R. Cells were washed with PBS containing 0.5% BSA and 0.1% sodium azide (staining buffer) and added to 96-well V-bottom plates with 100,000 cells/well. Human anti-CSF1R monovalent antibodies were added to the cells in 2.5 fold serial dilutions and incubated for 2 hour at room temperature. The plates were washed twice with staining buffer. The secondary antibody against human Fc conjugated to APC was added at 1:200 dilution (1.5 mg/ml stock) and incubated with the cells for 1 hour at 4° C. followed by washing with staining buffer. Cells were subsequently stained with a live/dead dye to exclude any dying cells and were fixed for 10 minutes with 4% paraformaldehyde at room temperature. The plates were read on CytoFLEX LS (Beckman Coulter). Data was calculated as the percent-APC positive population.

T1 sequence (P07333 20-517): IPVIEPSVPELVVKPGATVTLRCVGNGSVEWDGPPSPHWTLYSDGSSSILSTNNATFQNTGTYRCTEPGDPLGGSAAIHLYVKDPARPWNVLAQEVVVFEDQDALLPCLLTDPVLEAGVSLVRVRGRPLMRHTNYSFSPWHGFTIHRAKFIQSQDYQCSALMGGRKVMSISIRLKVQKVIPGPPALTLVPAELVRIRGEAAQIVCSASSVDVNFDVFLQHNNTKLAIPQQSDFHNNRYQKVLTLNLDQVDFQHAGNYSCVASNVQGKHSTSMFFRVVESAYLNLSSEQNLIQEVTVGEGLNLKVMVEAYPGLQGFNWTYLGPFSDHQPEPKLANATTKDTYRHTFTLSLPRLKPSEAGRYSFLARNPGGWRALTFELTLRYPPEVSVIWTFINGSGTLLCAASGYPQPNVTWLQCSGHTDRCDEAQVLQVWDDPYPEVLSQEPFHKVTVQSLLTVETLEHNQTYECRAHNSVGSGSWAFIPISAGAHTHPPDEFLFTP

Binder | binding result [1] | binding result [2]
BIM0552 (antibody, human IgG1, lambda, Heavy chain entry ends in X = K or absent; also called multispecific molecule 80; aCSF1R BI117 half-arm antibody) heavy: EVQLVESGGGLVQPGGSLRLSCAASGFTFSNDEMNWIRQAPGKGLEWVSYISSRSSTIYYADAVKGRFTISRDNARNSLYLQMNSLRAEDTAVYYCARGVDGDFSFDYWGQGTLVTVSSASTKGPSVFPLAPSSKSTSGGTAALGCLVKDYFPEPVTVSWNSGALTSGVHTFPAVLQSSGLYSLSSVVTVPSSSLGTQTYICNVNHKPSNTKVDKRVEPKSCDKTHTCPPCPAPELLGGPSVFLFPPKPKDTLMISRTPEVTCVVVDVSHEDPEVKFNWYVDGVEVHNAKTKPREEQYNSTYRVVSVLTVLHQDWLNGKEYKCKVSNKALPAPIEKTISKAKGQPREPQVCTLPPSREEMTKNQVSLSCAVKGFYPSDIAVEWESNGQPENNYKTTPPVLDSDGSFFLVSKLTVDKSRWQQGNVFSCSVMHEALHNHYTQKSLSLSPGK light: QLVLTQPPSVSGAPGQRVTISCTGSSSNIGAGYDVHWYQQLPGTAPKLLIYGNSNRPSGVPDRFSGSKSGTSASLAITGLQAEDEADYYCQSYDSSLSEEVFGGGTKLTVLGQPKANPTVTLFPPSSEELQANKATLVCLISDFYPGAVTVAWKADGSPVKAGVETTKPSKQSNNKYAASSYLSLTPEQWKSHRSYSCQVTHEGSTVEKTVAPTECS not shown | binds | binds
BIM0544 (antibody, human IgG1, lambda, Half-arm (monovalent) anti-human CSF1R antibody, three chains as BIM0542; Heavy chain entry ends in X = K or absent; also called multispecific molecule 72; aCSF1R BI117 D1-R2A half-arm antibody) heavy: EVQLVESGGGLVQPGGSLRLSCAASGFTFSNDEMNWIRQAPGKGLEWVSYISSRSSTIYYADAVKGRFTISRDNARNSLYLQMNSLRAEDTAVYYCARNSDEDGSFDYWGQGTLVTVSSASTKGPSVFPLAPSSKSTSGGTAALGCLVKDYFPEPVTVSWNSGALTSGVHTFPAVLQSSGLYSLSSVVTVPSSSLGTQTYICNVNHKPSNTKVDKRVEPKSCDKTHTCPPCPAPELLGGPSVFLFPPKPKDTLMISRTPEVTCVVVDVSHEDPEVKFNWYVDGVEVHNAKTKPREEQYNSTYRVVSVLTVLHQDWLNGKEYKCKVSNKALPAPIEKTISKAKGQPREPQVCTLPPSREEMTKNQVSLSCAVKGFYPSDIAVEWESNGQPENNYKTTPPVLDSDGSFFLVSKLTVDKSRWQQGNVFSCSVMHEALHNHYTQKSLSLSPGK light: QLVLTQPPSVSGAPGQRVTISCTGSSSNIGAGYDVHWYQQLPGTAPKLLIYGNSNRPSGVPDRFSGSKSGTSASLAITGLQAEDEADYYCQSYDSSLSEEVFGGGTKLTVLGQPKANPTVTLFPPSSEELQANKATLVCLISDFYPGAVTVAWKADGSPVKAGVETTKPSKQSNNKYAASSYLSLTPEQWKSHRSYSCQVTHEGSTVEKTVAPTECS not shown | binds | binds
BIM0545 (antibody, human IgG1, lambda, Half-arm (monovalent) anti-human CSF1R antibody, three chains as BIM0542; Heavy chain entry ends in X = K or absent; also called multispecific molecule 73; aCSF1R BI117 E2-R2B half-arm antibody) heavy: EVQLVESGGGLVQPGGSLRLSCAASGFTFSNDEMNWIRQAPGKGLEWVSYITSKSSTIYYADSVKGRFTISRDNARNSLYLQMNSLRAEDTAVYYCARGVDGDFSFDYWGQGTLVTVSSASTKGPSVFPLAPSSKSTSGGTAALGCLVKDYFPEPVTVSWNSGALTSGVHTFPAVLQSSGLYSLSSVVTVPSSSLGTQTYICNVNHKPSNTKVDKRVEPKSCDKTHTCPPCPAPELLGGPSVFLFPPKPKDTLMISRTPEVTCVVVDVSHEDPEVKFNWYVDGVEVHNAKTKPREEQYNSTYRVVSVLTVLHQDWLNGKEYKCKVSNKALPAPIEKTISKAKGQPREPQVCTLPPSREEMTKNQVSLSCAVKGFYPSDIAVEWESNGQPENNYKTTPPVLDSDGSFFLVSKLTVDKSRWQQGNVFSCSVMHEALHNHYTQKSLSLSPGK light: QLVLTQPPSVSGAPGQRVTISCTGSSSNIGAGYDVHWYQQLPGTAPKLLIYGNSNRPSGVPDRFSGSKSGTSASLAITGLQAEDEADYYCQSYDSSLSEEVFGGGTKLTVLGQPKANPTVTLFPPSSEELQANKATLVCLISDFYPGAVTVAWKADGSPVKAGVETTKPSKQSNNKYAASSYLSLTPEQWKSHRSYSCQVTHEGSTVEKTVAPTECS not shown | binds | binds
BIM0547 (antibody, human IgG1, lambda, Half-arm (monovalent) anti-human CSF1R antibody, three chains as BIM0542; Heavy chain entry ends in X = K or absent; also called multispecific molecule 75; aCSF1R BI117 G12-R2B half-arm antibody) heavy: EVQLVESGGGLVQPGGSLRLSCAASGFTFSNDEMNWIRQAPGKGLEWVSYITSKSSTIYYADAVKGRFTISRDNARNSLYLQMNSLRAEDTAVYYCARGVDGDFSFDYWGQGTLVTVSSASTKGPSVFPLAPSSKSTSGGTAALGCLVKDYFPEPVTVSWNSGALTSGVHTFPAVLQSSGLYSLSSVVTVPSSSLGTQTYICNVNHKPSNTKVDKRVEPKSCDKTHTCPPCPAPELLGGPSVFLFPPKPKDTLMISRTPEVTCVVVDVSHEDPEVKFNWYVDGVEVHNAKTKPREEQYNSTYRVVSVLTVLHQDWLNGKEYKCKVSNKALPAPIEKTISKAKGQPREPQVCTLPPSREEMTKNQVSLSCAVKGFYPSDIAVEWESNGQPENNYKTTPPVLDSDGSFFLVSKLTVDKSRWQQGNVFSCSVMHEALHNHYTQKSLSLSPGK light: QLVLTQPPSVSGAPGQRVTISCTGSSSNIGAGYDVHWYQQLPGTAPKLLIYGNSNRPSGVPDRFSGSKSGTSASLAITGLQAEDEADYYCQSYDSSLSEEVFGGGTKLTVLGQPKANPTVTLFPPSSEELQANKATLVCLISDFYPGAVTVAWKADGSPVKAGVETTKPSKQSNNKYAASSYLSLTPEQWKSHRSYSCQVTHEGSTVEKTVAPTECS not shown | binds | binds
BIM0543 (antibody, human IgG1, lambda, Half-arm (monovalent) anti-human CSF1R antibody, three chains as BIM0542; Heavy chain entry ends in X = K or absent; also called multispecific molecule 71; aCSF1R BI117 C9-R2A half-arm antibody) heavy: EVQLVESGGGLVQPGGSLRLSCAASGFTFSNDEMNWIRQAPGKGLEWVSFISGGSSTIYYADAVKGRFTISRDNARNSLYLQMNSLRAEDTAVYYCARGVDGDFSFDYWGQGTLVTVSSASTKGPSVFPLAPSSKSTSGGTAALGCLVKDYFPEPVTVSWNSGALTSGVHTFPAVLQSSGLYSLSSVVTVPSSSLGTQTYICNVNHKPSNTKVDKRVEPKSCDKTHTCPPCPAPELLGGPSVFLFPPKPKDTLMISRTPEVTCVVVDVSHEDPEVKFNWYVDGVEVHNAKTKPREEQYNSTYRVVSVLTVLHQDWLNGKEYKCKVSNKALPAPIEKTISKAKGQPREPQVCTLPPSREEMTKNQVSLSCAVKGFYPSDIAVEWESNGQPENNYKTTPPVLDSDGSFFLVSKLTVDKSRWQQGNVFSCSVMHEALHNHYTQKSLSLSPGK light: QLVLTQPPSVSGAPGQRVTISCTGSSSNIGAGYDVHWYQQLPGTAPKLLIYGNSNRPSGVPDRFSGSKSGTSASLAITGLQAEDEADYYCQSYDSSLSEEVFGGGTKLTVLGQPKANPTVTLFPPSSEELQANKATLVCLISDFYPGAVTVAWKADGSPVKAGVETTKPSKQSNNKYAASSYLSLTPEQWKSHRSYSCQVTHEGSTVEKTVAPTECS not shown | binds | binds

Now from value to binder:

binding result [1] | binding result [2] | Binder
binds | binds | BIM0542 (antibody, human IgG1, lambda, Heavy chain entry ends in X = K or absent; also called multispecific molecule 70; aCSF1R BI117 C5-R2A half-arm antibody) heavy: EVQLVESGGGLVQPGGSLRLSCAASGFTFSNDEMNWIRQAPGKGLEWVSYISSGSSTIYYADAVKGRFTISRDNARNSLYLQMNSLRAEDTAVYYCARGVDGDFSFDYWGQGTLVTVSSASTKGPSVFPLAPSSKSTSGGTAALGCLVKDYFPEPVTVSWNSGALTSGVHTFPAVLQSSGLYSLSSVVTVPSSSLGTQTYICNVNHKPSNTKVDKRVEPKSCDKTHTCPPCPAPELLGGPSVFLFPPKPKDTLMISRTPEVTCVVVDVSHEDPEVKFNWYVDGVEVHNAKTKPREEQYNSTYRVVSVLTVLHQDWLNGKEYKCKVSNKALPAPIEKTISKAKGQPREPQVCTLPPSREEMTKNQVSLSCAVKGFYPSDIAVEWESNGQPENNYKTTPPVLDSDGSFFLVSKLTVDKSRWQQGNVFSCSVMHEALHNHYTQKSLSLSPGK light: QLVLTQPPSVSGAPGQRVTISCTGSSSNIGAGYDVHWYQQLPGTAPKLLIYGNSNRPSGVPDRFSGSKSGTSASLAITGLQAEDEADYYCQSYDSSLSEEVFGGGTKLTVLGQPKANPTVTLFPPSSEELQANKATLVCLISDFYPGAVTVAWKADGSPVKAGVETTKPSKQSNNKYAASSYLSLTPEQWKSHRSYSCQVTHEGSTVEKTVAPTECS not shown
binds | binds | BIM0546 (antibody, human IgG1, lambda, Half-arm (monovalent) anti-human CSF1R antibody, three chains as BIM0542; Heavy chain entry ends in X = K or absent; also called multispecific molecule 74; aCSF1R BI117 G1-R2B half-arm antibody) heavy: EVQLVESGGGLVQPGGSLRLSCAASGFTFSNDEMNWIRQAPGKGLEWVSYISSRSSTIYYADAVKGRFTISRDNARNSLYLQMNSLRAEDTAVYYCARGVDGDFSFDVWGQGTLVTVSSASTKGPSVFPLAPSSKSTSGGTAALGCLVKDYFPEPVTVSWNSGALTSGVHTFPAVLQSSGLYSLSSVVTVPSSSLGTQTYICNVNHKPSNTKVDKRVEPKSCDKTHTCPPCPAPELLGGPSVFLFPPKPKDTLMISRTPEVTCVVVDVSHEDPEVKFNWYVDGVEVHNAKTKPREEQYNSTYRVVSVLTVLHQDWLNGKEYKCKVSNKALPAPIEKTISKAKGQPREPQVCTLPPSREEMTKNQVSLSCAVKGFYPSDIAVEWESNGQPENNYKTTPPVLDSDGSFFLVSKLTVDKSRWQQGNVFSCSVMHEALHNHYTQKSLSLSPGK light: QLVLTQPPSVSGAPGQRVTISCTGSSSNIGAGYDVHWYQQLPGTAPKLLIYGNSNRPSGVPDRFSGSKSGTSASLAITGLQAEDEADYYCQSYDSSLSEEVFGGGTKLTVLGQPKANPTVTLFPPSSEELQANKATLVCLISDFYPGAVTVAWKADGSPVKAGVETTKPSKQSNNKYAASSYLSLTPEQWKSHRSYSCQVTHEGSTVEKTVAPTECS not shown
